Data as given in patent US7507538B2, “Human papilloma virus immunoreactive peptides” (priority 2001, dated 2009).
“Also recorded” adds a separate entry of the source.

Columns and labels:
HLA-A2 molecule = biological target: T1, HLA-A2 molecule (Homo sapiens, UniProt P04439, D140Y/D185E/D98H/E176V/E277Q/G131W/G231S/I119V/I121R/I166T/I218V/L300P/L318F/N151K/N90K/P208A/P217A/Q86G/Q94H/R138H/R169H/T345S); assay: Binding of fluorescently labeled peptide to T2A2 cells; conditions: for affinity for HLA-A2 relative to the other peptides tested / binding to the HLA-A2 molecules on the surface of T2A2 cells: FIG. 1; for binding to the HLA-A2 molecules on the surface of T2A2 cells: fluorescently labeled peptide
T1 construct: endogenous in cells; host or cells: T2A2 cells

[1] = system: autologous PBMC pulsed with HPV-16E6 or HPV-18E6 peptides; assay: 51Cr release lysis of peptide-pulsed autologous PBMC by lymphocytes stimulated in vitro with peptide; assay type: cell-based, human; conditions: lymphocytes of an HLA-A2 patient, peptide at 10 μm for 1-3 weeks, FIG. 2
Protocol: To determine if lymphocytes stimulated in vitro with either the HPV-18E6 peptide (SEQ ID NO. 1) or the HPV-16E6 peptide (SEQ ID NO. 10) would recognize and lyse peripheral blood mononuclear cells (PBMCs) pulsed with these peptides, the following experiment was performed. Lymphocytes isolated from a patient known to carry and express the HLA-A2 allele were stimulated in vitro (IVS) with either the HPV-18E6 peptide (SEQ ID NO. 1) or the HPV-16E6 peptide (SEQ ID NO. 10) at a 10 μm concentration for 1-3 weeks. Autologous PBMC target cells were radiolabeled with ^51Cr and pulsed with either the HPV-18E6 peptide (SEQ ID NO. 1) or the HPV-16E6 peptide (SEQ ID NO. 10). Each of the IVS lymphocyte populations were then mixed with each of the pulsed and labeled PBMC target cells and specific lysis was measured. Lymphocytes IVS with either the HPV-18E6 peptide (SEQ ID NO. 1) or the HPV-16E6 peptide (SEQ ID NO. 10) were able to lyse PBMCs which were pulsed with either the HPV-18E6 peptide (SEQ ID NO. 1) or the HPV-16E6 peptide (SEQ ID NO. 10) and had either the HPV-18E6 peptide (SEQ ID NO. 1) or the HPV-16E6 (SEQ ID NO. 10) peptide on their cell surface.
T cell cytotoxicity is measured by the standard ^51Cr-release assay. Briefly, target cells are radiolabeled with Na2 ^51CrO4. The patient's PBMC (which have been previously stimulated with an HPV peptide of Example 1 at 10 μm concentration for 1 to 3 weeks) are added to the labeled target cells in the presence or absence of the peptide. Cell lysis is determined by the specific release of ^51Cr (specific lysis). Target cells are autologous B-LCL or T2 cells pulsed with the peptide. If there is a detectable pre-immunization specific lysis, a 2.0 fold increase in the lytic units will be considered a positive response. If there is no detectable pre-immunization specific lysis, a post-immunization specific lysis of […] 10% above the controls will be considered a positive response.

Row | Sequence | fold higher affinity for the HLA-A2 molecule than the homologous HPV-16E6 peptide KLPQLCTEL (HLA-A2 molecule; T2A2 cells) | affinity for HLA-A2 relative to the other peptides tested (HLA-A2 molecule; T2A2 cells) | affinity for HLA-A2 relative to the other peptides tested (HLA-A2 molecule; T2A2 cells, listed as HPV-18E6 (13-21) peptide) | binding to the HLA-A2 molecules on the surface of T2A2 cells (HLA-A2 molecule) | binding to the HLA-A2 molecules on the surface of T2A2 cells (HLA-A2 molecule; listed as HPV-18E6 (13-21) peptide) | binding to the HLA-A2 molecules on the surface of T2A2 cells (HLA-A2 molecule; listed as HPV-18E6 peptide) | specific lysis of autologous PBMC pulsed with either HPV-18E6 or HPV-16E6 peptide by lymphocytes stimulated in vitro with the peptide ([1]; listed as HPV-18E6 peptide) | specific lysis of autologous PBMC pulsed with either HPV-18E6 or HPV-16E6 peptide by lymphocytes stimulated in vitro with the peptide ([1]; listed as HPV-18E6 peptides) | specific lysis of autologous PBMC pulsed with either HPV-18E6 or HPV-16E6 peptide by lymphocytes stimulated in vitro with the peptide ([1]; listed as HPV-16E6 peptide) | specific lysis of autologous PBMC pulsed with either HPV-18E6 or HPV-16E6 peptide by lymphocytes stimulated in vitro with the peptide ([1]; listed as HPV-16E6 peptides)
1 | KLPDLCTEL | approximately 100 fold | higher affinity than did either the FMP peptide or the homologous peptide from the HPV-16E6 protein | higher than the homologous HPV-16E6 peptide | bound | high affinity | able to bind | able to lyse; also recorded: able to elicit an immune response | specifically lyse |  | 
2 | KLPQLCTEL [homologous peptide from the HPV-16E6 protein (amino acids 13-21), reference compound] |  |  |  |  |  |  |  |  | able to lyse | lyse
